Measured values published in patent publication EP3623383A1 (Deutsches Krebsforschungszentrum, Stiftung des öffentlichen …, dated 2020).

T1: His tagged, recombinant FLT3 protein (Sino Biologicals) (human, UniProt P36888 27-541, limits assumed)
T1 construct: also called soluble recombinant FLT3 protein; not shown: His tag
T1 sequence (looked up): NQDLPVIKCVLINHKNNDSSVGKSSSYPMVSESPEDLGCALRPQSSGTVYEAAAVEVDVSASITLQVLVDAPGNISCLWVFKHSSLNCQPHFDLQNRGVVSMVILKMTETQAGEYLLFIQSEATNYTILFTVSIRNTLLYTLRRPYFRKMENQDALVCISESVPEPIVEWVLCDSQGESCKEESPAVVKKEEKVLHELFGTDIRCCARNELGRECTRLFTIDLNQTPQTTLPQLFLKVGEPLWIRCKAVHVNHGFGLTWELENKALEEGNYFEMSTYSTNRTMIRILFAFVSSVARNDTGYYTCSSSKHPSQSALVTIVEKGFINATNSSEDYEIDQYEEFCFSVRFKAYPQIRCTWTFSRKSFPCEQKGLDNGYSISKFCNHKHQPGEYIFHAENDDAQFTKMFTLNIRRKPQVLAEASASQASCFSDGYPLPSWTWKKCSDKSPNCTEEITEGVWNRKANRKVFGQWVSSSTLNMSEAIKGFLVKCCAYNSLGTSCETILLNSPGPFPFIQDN

B1: V2-V6 (CC-2 variant 2, bispecific FLT3xCD3 IgGsc antibody) (bispecific antibody)
heavy: QVQLVQSGAEVKKPGGSLRLSCAASGYTFTSYWMHWVRQAPGQGLEWIGEIDPSDSYTDYAQKFKDRVTISRDTSKNTLYLQLSSLRAEDTAVYYCARAITTTPFDFWGQGTLVTVSSASTKGPSVFPLAPSSKSTSGGTAALGCLVKDYFPEPVTVSWNSGALTSGVHTFPAVLQSSGLYSLSSVVTVPSSSLGTQTYICNVNHKPSNTKVDKKVEPKSCDKTHTCPPCPAPPVAGPSVFLFPPKPKDTLMISRTPEVTCVVVGVSHEDPEVKFNWYVDGVEVHNAKTKPREEQYNSTYRVVSVLTVLHQDWLNGKEYKCKVSNKQLPSPIEKTISKAKGQPREPQVYTLPPSRDELTKNQVSLTCLVKGFYPSDIAVEWESNGQPENNYKTTPPVLDSDGSFFLYSKLTVDKSRWQQGNVFSCSVMHEALHNHYTQKSLSLSPGKSGDIQMTQSPSSLSASVGDRVTITCRASQDIRNYLNWYQQKPGKAPKLLIYYTSRLESGVPSRFSGSGSGTDYTLTISSLQPEDFATYYCQQGNTLPWTFGQGTKVEIKGGGGSGGGGSGGGGSEVQLVESGGGLVQPGGSLRLSCAASGYSFTGYTMNWVRQAPGKGLEWVALINPYKGVSTYNQKFKDRFTISVDKSKNTAYLQMNSLRAEDTAVYYCARSGYYGDSDWYFDVWGQGTLVTVSS
light: EIVMTQSPATLSVSPGERATLSCRASQSISNNLHWYQQKPGQAPRLLIKYASQSISGIPARFSGSGSGTEFTLTISSLQSEDFAVYFCQQSNTWPYTFGGGTKLEIKTVAAPSVFIFPPSDEQLKSGTASVVCLLNNFYPREAKVQWKVDNALQSGNSQESVTEQDSKDSTYSLSSTLTLSKADYEKHKVYACEVTHQGLSSPVTKSFNRGEC
notes: IgGsc format, Fc-attenuated; also called Version 2; Humanized 4G8 FLT3 variable region Variant 2 with V6 CD3 scFv
B2: V5-V6 (CC-2 variant 5, bispecific FLT3xCD3 IgGsc antibody) (bispecific antibody)
heavy: QVQLVQSGAEVKKPGGSLRLSCAASGYTFTSYWMHWVRQAPGQGLEWIGEIDPSDSYKDYNQKFKDRVTISRDTSKNTLYLQLSSLRAEDTAVYYCARAITTTPFDFWGQGTLVTVSSASTKGPSVFPLAPSSKSTSGGTAALGCLVKDYFPEPVTVSWNSGALTSGVHTFPAVLQSSGLYSLSSVVTVPSSSLGTQTYICNVNHKPSNTKVDKKVEPKSCDKTHTCPPCPAPPVAGPSVFLFPPKPKDTLMISRTPEVTCVVVGVSHEDPEVKFNWYVDGVEVHNAKTKPREEQYNSTYRVVSVLTVLHQDWLNGKEYKCKVSNKQLPSPIEKTISKAKGQPREPQVYTLPPSRDELTKNQVSLTCLVKGFYPSDIAVEWESNGQPENNYKTTPPVLDSDGSFFLYSKLTVDKSRWQQGNVFSCSVMHEALHNHYTQKSLSLSPGKSGDIQMTQSPSSLSASVGDRVTITCRASQDIRNYLNWYQQKPGKAPKLLIYYTSRLESGVPSRFSGSGSGTDYTLTISSLQPEDFATYYCQQGNTLPWTFGQGTKVEIKGGGGSGGGGSGGGGSEVQLVESGGGLVQPGGSLRLSCAASGYSFTGYTMNWVRQAPGKGLEWVALINPYKGVSTYNQKFKDRFTISVDKSKNTAYLQMNSLRAEDTAVYYCARSGYYGDSDWYFDVWGQGTLVTVSS
light: EIVMTQSPATLSVSPGERATLSCRASQSISNNLHWYQQKPGQAPRLLIKYASQSISGIPARFSGSGSGTEFTLTISSLQSEDFAVYFCQQSNTWPYTFGGGTKLEIKTVAAPSVFIFPPSDEQLKSGTASVVCLLNNFYPREAKVQWKVDNALQSGNSQESVTEQDSKDSTYSLSSTLTLSKADYEKHKVYACEVTHQGLSSPVTKSFNRGEC
notes: IgGsc format, Fc-attenuated; also called Version 5; Humanized 4G8 FLT3 variable region Variant 5 with V6 CD3 scFv
B3: V1-V6 (CC-2 variant 1, bispecific FLT3xCD3 IgGsc antibody) (bispecific antibody)
heavy: QVQLVQSGAEVKKPGGSLRLSCAASGYTFTSYWMHWVRQAPGQGLEWIGEIDPSDSYTDYAQKFKDRVTISRDTSKNTLYLQLSSLRAEDTAVYYCARAITTTPFDFWGQGTLVTVSSASTKGPSVFPLAPSSKSTSGGTAALGCLVKDYFPEPVTVSWNSGALTSGVHTFPAVLQSSGLYSLSSVVTVPSSSLGTQTYICNVNHKPSNTKVDKKVEPKSCDKTHTCPPCPAPPVAGPSVFLFPPKPKDTLMISRTPEVTCVVVGVSHEDPEVKFNWYVDGVEVHNAKTKPREEQYNSTYRVVSVLTVLHQDWLNGKEYKCKVSNKQLPSPIEKTISKAKGQPREPQVYTLPPSRDELTKNQVSLTCLVKGFYPSDIAVEWESNGQPENNYKTTPPVLDSDGSFFLYSKLTVDKSRWQQGNVFSCSVMHEALHNHYTQKSLSLSPGKSGDIQMTQSPSSLSASVGDRVTITCRASQDIRNYLNWYQQKPGKAPKLLIYYTSRLESGVPSRFSGSGSGTDYTLTISSLQPEDFATYYCQQGNTLPWTFGQGTKVEIKGGGGSGGGGSGGGGSEVQLVESGGGLVQPGGSLRLSCAASGYSFTGYTMNWVRQAPGKGLEWVALINPYKGVSTYNQKFKDRFTISVDKSKNTAYLQMNSLRAEDTAVYYCARSGYYGDSDWYFDVWGQGTLVTVSS
light: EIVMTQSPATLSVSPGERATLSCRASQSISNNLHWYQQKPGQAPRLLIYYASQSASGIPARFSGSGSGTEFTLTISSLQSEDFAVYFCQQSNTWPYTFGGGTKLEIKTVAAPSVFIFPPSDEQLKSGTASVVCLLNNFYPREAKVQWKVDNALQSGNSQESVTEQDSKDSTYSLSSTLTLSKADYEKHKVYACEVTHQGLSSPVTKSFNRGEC
notes: also called Version 1; Humanized 4G8 FLT3 variable region Variant 1 with V6 CD3 scFv
B4: V3-V6 (CC-2 variant 3, bispecific FLT3xCD3 IgGsc antibody) (bispecific antibody)
heavy: QVQLVQSGAEVKKPGASVKVSCKASGYTFTSYWMHWVRQAPGQGLEWIGEIDPSDSYKDYNQKFKDRVTMTRDTSTSTVYMELSSLRSEDTAVYYCARAITTTPFDFWGQGTTVTVSSASTKGPSVFPLAPSSKSTSGGTAALGCLVKDYFPEPVTVSWNSGALTSGVHTFPAVLQSSGLYSLSSVVTVPSSSLGTQTYICNVNHKPSNTKVDKKVEPKSCDKTHTCPPCPAPPVAGPSVFLFPPKPKDTLMISRTPEVTCVVVGVSHEDPEVKFNWYVDGVEVHNAKTKPREEQYNSTYRVVSVLTVLHQDWLNGKEYKCKVSNKQLPSPIEKTISKAKGQPREPQVYTLPPSRDELTKNQVSLTCLVKGFYPSDIAVEWESNGQPENNYKTTPPVLDSDGSFFLYSKLTVDKSRWQQGNVFSCSVMHEALHNHYTQKSLSLSPGKSGDIQMTQSPSSLSASVGDRVTITCRASQDIRNYLNWYQQKPGKAPKLLIYYTSRLESGVPSRFSGSGSGTDYTLTISSLQPEDFATYYCQQGNTLPWTFGQGTKVEIKGGGGSGGGGSGGGGSEVQLVESGGGLVQPGGSLRLSCAASGYSFTGYTMNWVRQAPGKGLEWVALINPYKGVSTYNQKFKDRFTISVDKSKNTAYLQMNSLRAEDTAVYYCARSGYYGDSDWYFDVWGQGTLVTVSS
light: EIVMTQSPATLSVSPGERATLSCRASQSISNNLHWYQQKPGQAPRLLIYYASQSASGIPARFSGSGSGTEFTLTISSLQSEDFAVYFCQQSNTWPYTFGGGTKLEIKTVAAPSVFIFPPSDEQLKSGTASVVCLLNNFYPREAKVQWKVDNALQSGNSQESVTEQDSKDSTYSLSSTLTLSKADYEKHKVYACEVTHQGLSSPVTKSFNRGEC
notes: also called Version 3; Humanized 4G8 FLT3 variable region Variant 3 with V6 CD3 scFv
B5: V4-V6 (CC-2 variant 4, bispecific FLT3xCD3 IgGsc antibody) (bispecific antibody)
heavy: QVQLVQSGAEVKKPGASVKVSCKASGYTFTSYWMHWVRQAPGQGLEWIGEIDPSDSYKDYNQKFKDRVTMTRDTSTSTVYMELSSLRSEDTAVYYCARAITTTPFDFWGQGTTVTVSSASTKGPSVFPLAPSSKSTSGGTAALGCLVKDYFPEPVTVSWNSGALTSGVHTFPAVLQSSGLYSLSSVVTVPSSSLGTQTYICNVNHKPSNTKVDKKVEPKSCDKTHTCPPCPAPPVAGPSVFLFPPKPKDTLMISRTPEVTCVVVGVSHEDPEVKFNWYVDGVEVHNAKTKPREEQYNSTYRVVSVLTVLHQDWLNGKEYKCKVSNKQLPSPIEKTISKAKGQPREPQVYTLPPSRDELTKNQVSLTCLVKGFYPSDIAVEWESNGQPENNYKTTPPVLDSDGSFFLYSKLTVDKSRWQQGNVFSCSVMHEALHNHYTQKSLSLSPGKSGDIQMTQSPSSLSASVGDRVTITCRASQDIRNYLNWYQQKPGKAPKLLIYYTSRLESGVPSRFSGSGSGTDYTLTISSLQPEDFATYYCQQGNTLPWTFGQGTKVEIKGGGGSGGGGSGGGGSEVQLVESGGGLVQPGGSLRLSCAASGYSFTGYTMNWVRQAPGKGLEWVALINPYKGVSTYNQKFKDRFTISVDKSKNTAYLQMNSLRAEDTAVYYCARSGYYGDSDWYFDVWGQGTLVTVSS
light: EIVMTQSPATLSVSPGERATLSCRASQSISNNLHWYQQKPGQAPRLLIKYASQSISGIPARFSGSGSGTEFTLTISSLQSEDFAVYFCQQSNTWPYTFGGGTKLEIKTVAAPSVFIFPPSDEQLKSGTASVVCLLNNFYPREAKVQWKVDNALQSGNSQESVTEQDSKDSTYSLSSTLTLSKADYEKHKVYACEVTHQGLSSPVTKSFNRGEC
notes: IgGsc format, Fc-attenuated; also called Version 4; variant V4

Legend:
[1] = target: T1, His tagged, recombinant FLT3 protein …; experiment: SPR (Biacore X); antibody captured on protein A chip, His-tagged FLT3 in solution
[2] = target: T2, CD3 as expressed on Jurkat cells (CD3+) (human, UniProt P07766 23-207); experiment: flow cytometry on CD3+ Jurkat cells; value told of the CD3 binding part shared by V1 to V5
T2 construct: whole, on cells; CD3 is a complex of several chains; also called Jurkat cells expressing CD3
T2 sequence (P07766 23-207): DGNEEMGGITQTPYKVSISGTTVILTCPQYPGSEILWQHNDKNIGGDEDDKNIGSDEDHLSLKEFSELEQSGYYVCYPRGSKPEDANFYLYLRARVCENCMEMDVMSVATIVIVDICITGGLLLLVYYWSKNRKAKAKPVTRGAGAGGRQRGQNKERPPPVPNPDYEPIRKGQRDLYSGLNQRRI

Binder | Kd [1] [nM] | koff [1] [s⁻¹] | kon [1] [M⁻¹ s⁻¹] | EC50 [2] [nM]
B1 | 88000 | 0.0318 | 540 | ~10
B2 | 160 | 0.00449 | 29600 | ~10
B3 | 63000 | 0.022 | 489 | ~10
B4 | 87000 | 0.0233 | 276 | ~10
B5 | 480 | 0.00887 | 18800 | ~10
